Test results published in publication doi:10.1101/299487 (bioRxiv, 2018).
Like-named read-outs stand apart in the source and are kept apart here.

B1: Dam1C/DASH heterodecamer (recombinant) (complex, yeast (budding yeast))
chain 1: MSEDKAKLGTTRSATEYRLSIGSAPTSRRSSMGESSSLMKFADQEGLTSSVGEYNENTIQQLLLPKIRELSDSIITLDSNFTRLNFIHESLADLNESLGSLLYGIMSNSWCVEFSQAPHDIQDDLIAIKQLKSLEDEKNNLVMELSNMERGIKRKKDEQGENDLAKASQNKQFNQPLFPSSQVRKYRSYDNRDKRKPSKIGNNLQVENEEDYEDDTSSEASFVLNPTNIGMSKSSQGHVTKTTRLNNNTNSKLRRKSILHTIRNSIASGADLPIENDNVVNLGDLHPNNRISLGSGAARVVNGPVTKNRNSMFSGRAERKPTESRHSVAKKTEKKINTRPPFR
chain 2: MMASTSNDEEKLISTTDKYFIEQRNIVLQEINETMNSILNGLNGLNISLESSIAVGREFQSVSDLWKTLYDGLESLSDEAPIDEQPTLSQSKTK
chain 3: MDSIDEQIAIKRKELQSLQKITSLTDGLKIQLTELNEQIKEMGMNADSVAQLMNNWDSIINNISQASLGLLQYAEGDYEIGPWKDSKKKESEQSNETGLEAQENDKNDEDNDEDEDLVPLPETMVRIRVDGNE
chain 4: MEHNLSPLQQEVLDKYKQLSLDLKALDETIKELNYSQHRQQHSQQETVSPDEILQEMRDIEVKIGLVGTLLKGSVYSLILQRKQEQESLGSNSK
chain 5: MENPHEQVQANILSRIIGNVKRLNESVAILNQELVTINNRNKNLEIMGAICDNYHSSVQFNLEATNNKKPPL
chain 6: MSEQSQLDDSTIDKLIPQIFNEMRSNLNNTTNKFPKSTGGGASDNISANSNSIRSFNSITTQSLLKESESLDKITAMIKNVTAALKNNLPVYVNQVHEVCKSTNSILDSWINIHSQAGYIHKLMSDQTYLKLINDRLHNENVNTNDEDGSTLHNVIALKKKEILDLRQKLENRKGEKDAAPAKPPNQGLNPRYGVQSGRRPVPSAGISNNGRVRKTHVPASKRPSGIPRVTNRWTKPTASSSRKMFR
chain 7: MDSASKEETLEKLDQEITVNLQKIDSNLSFCFHKITQDIIPHVATYSEICERIMDSTEWLGTMFQETGLVNLQANAAAPVGNAPVKSLVSNNVGIFPTSAEEASRQSQTDNGPNEADSAVHVNRDVHSMFNNDSIDDFHTANITSTGQILKLPDSSDEDTGSEAVPSREQTDLTGEGHGGADDEQDESTIQRQSRKRKISLLLQQQYGSSSSMVPSPIVPNKMRKQLAHEEHINNDGDNDDENSNNIESSPLKQGHHHPKGQADDNNEGPDEEESTKEVPKPGTIIHFSTNR
chain 8: MTDALEQSVLALEGTVSVLKDSVESLKCANEPSTNLASTMLQTKRVFRLVPEYDVERSKLDLIEEVEPLVRTLGDKLRKSMGRMQRELDTLQQTYELNDLRLKKNISMDDDDALNSPDMGQEYEGRDADDVVMMASSTNEELEELKKLKEKKKQLENKLEILKQK
chain 9: MGESLDRCIDDINRAVDSMSTLYFKPPGIFHNAILQGASNKASIRKDITRLIKDCNHDEAYLLFKVNPEKQSVSRRDGKEGVFDYVIKRDTDMKRNRRLGRPGEKPIIHVPKEVYLNKDRLDLNNKRRRTATTSGGGLNGFIFDTDLIGSSVISNSSSGTFKALSAVFKDDPQIQRLLYALENGSVLMEEESNNQRRKTIFVEDFPTDLILKVMAEVTDLWPLTEFKQDYDQLYHNYEQLSSKLRFIKKEVLLQDDRLKTMSQYHPSSSHDVAKIIRKEKDEIRRLEMEIANLQE
chain 10: MNANKQRQYNQLAHELRELQTNLQETTKQLDIMSKQCNENLVGQLGKVHGSWLIGSYIYYMEQMLGKTQ
B2: Dam1C/DASH outer-kinetochore complex in yeast cells (complex)
chain 1: MSEDKAKLGTTRSATEYRLSIGSAPTSRRSSMGESSSLMKFADQEGLTSSVGEYNENTIQQLLLPKIRELSDSIITLDSNFTRLNFIHESLADLNESLGSLLYGIMSNSWCVEFSQAPHDIQDDLIAIKQLKSLEDEKNNLVMELSNMERGIKRKKDEQGENDLAKASQNKQFNQPLFPSSQVRKYRSYDNRDKRKPSKIGNNLQVENEEDYEDDTSSEASFVLNPTNIGMSKSSQGHVTKTTRLNNNTNSKLRRKSILHTIRNSIASGADLPIENDNVVNLGDLHPNNRISLGSGAARVVNGPVTKNRNSMFSGRAERKPTESRHSVAKKTEKKINTRPPFR
chain 2: MMASTSNDEEKLISTTDKYFIEQRNIVLQEINETMNSILNGLNGLNISLESSIAVGREFQSVSDLWKTLYDGLESLSDEAPIDEQPTLSQSKTK
chain 3: MDSIDEQIAIKRKELQSLQKITSLTDGLKIQLTELNEQIKEMGMNADSVAQLMNNWDSIINNISQASLGLLQYAEGDYEIGPWKDSKKKESEQSNETGLEAQENDKNDEDNDEDEDLVPLPETMVRIRVDGNE
chain 4: MEHNLSPLQQEVLDKYKQLSLDLKALDETIKELNYSQHRQQHSQQETVSPDEILQEMRDIEVKIGLVGTLLKGSVYSLILQRKQEQESLGSNSK
chain 5: MENPHEQVQANILSRIIGNVKRLNESVAILNQELVTINNRNKNLEIMGAICDNYHSSVQFNLEATNNKKPPL
chain 6: MSEQSQLDDSTIDKLIPQIFNEMRSNLNNTTNKFPKSTGGGASDNISANSNSIRSFNSITTQSLLKESESLDKITAMIKNVTAALKNNLPVYVNQVHEVCKSTNSILDSWINIHSQAGYIHKLMSDQTYLKLINDRLHNENVNTNDEDGSTLHNVIALKKKEILDLRQKLENRKGEKDAAPAKPPNQGLNPRYGVQSGRRPVPSAGISNNGRVRKTHVPASKRPSGIPRVTNRWTKPTASSSRKMFR
chain 7: MDSASKEETLEKLDQEITVNLQKIDSNLSFCFHKITQDIIPHVATYSEICERIMDSTEWLGTMFQETGLVNLQANAAAPVGNAPVKSLVSNNVGIFPTSAEEASRQSQTDNGPNEADSAVHVNRDVHSMFNNDSIDDFHTANITSTGQILKLPDSSDEDTGSEAVPSREQTDLTGEGHGGADDEQDESTIQRQSRKRKISLLLQQQYGSSSSMVPSPIVPNKMRKQLAHEEHINNDGDNDDENSNNIESSPLKQGHHHPKGQADDNNEGPDEEESTKEVPKPGTIIHFSTNR
chain 8: MTDALEQSVLALEGTVSVLKDSVESLKCANEPSTNLASTMLQTKRVFRLVPEYDVERSKLDLIEEVEPLVRTLGDKLRKSMGRMQRELDTLQQTYELNDLRLKKNISMDDDDALNSPDMGQEYEGRDADDVVMMASSTNEELEELKKLKEKKKQLENKLEILKQK
chain 9: MGESLDRCIDDINRAVDSMSTLYFKPPGIFHNAILQGASNKASIRKDITRLIKDCNHDEAYLLFKVNPEKQSVSRRDGKEGVFDYVIKRDTDMKRNRRLGRPGEKPIIHVPKEVYLNKDRLDLNNKRRRTATTSGGGLNGFIFDTDLIGSSVISNSSSGTFKALSAVFKDDPQIQRLLYALENGSVLMEEESNNQRRKTIFVEDFPTDLILKVMAEVTDLWPLTEFKQDYDQLYHNYEQLSSKLRFIKKEVLLQDDRLKTMSQYHPSSSHDVAKIIRKEKDEIRRLEMEIANLQE
chain 10: MNANKQRQYNQLAHELRELQTNLQETTKQLDIMSKQCNENLVGQLGKVHGSWLIGSYIYYMEQMLGKTQ

Experiments:
cryo-EM structure [1] = target: the molecule itself; experiment: cryo-EM structure
cryo-EM structure [2] = target: the molecule itself; experiment: cryo-EM structure; remark: listed apart in the source

| Protein | stoichiometry N (cryo-EM structure [1]) | stoichiometry N (cryo-EM structure [2]) |
| --- | --- | --- |
| B1 | 17 | – |
| B2 | – | 17 |
